The values below come from patent US9526766B2, “Potentiation of antibiotic treatment with a protein-lipid complex” (priority 2012, dated 2016).

Where two headings read alike, the source gives them in different places.

Data set [1] has as its system healthy human cells. Conditions: cited from earlier work.
Data set [2] concerns NRS 384 Staphylococci. The data set can be described thus: Radioisotope 45Ca2+ transport assay. The format is cell-based, Staphylococcus aureus. Conditions: ALAFAC addition, Ruthenium Red 30 μM. The procedure: Radioisotope ^45Ca^2+ transport assays. Staphylococcus aureus was grown to log phase, washed three times and resuspended in 1×PBS containing 0.5 mM CaCl2 (CaPBS). No glucose was added in order to minimize the interference created by extrusion of Ca^2+ via ATPase pumps. ^45CaCl2 (PerkinElmer; Waltham, Mass., USA) was added to the cells at a final concentration of 2.5 μCi/mL, followed by inhibitor compound, with each addition given two minutes equilibration time. The untreated baseline sample was measured at this point. The sample was then divided, ALAFAC was added to one of the tubes, and ^45Ca^2+ uptake was measured at various intervals. For each sample, 100 μL was dispensed onto Millipore 0.3 μm PHWP filters (EMD Millipore; Billerica, Mass., USA) presoaked in CaPBS, and immediately washed with 9 mL of CaPBS via syringe filtration through Millipore Swinnex® filter holders. Filters were placed in scintillation vials with 5 mL of scintillation fluid, and CPMs were detected on a Wallac 1409 liquid scintillation counter (Wallac Oy, Turku, Finland). The results were expressed as ΔCPM that was calculated for each sample at the indicated time points as the difference between ALAFAC-treated and untreated samples.

The subject of data set [3] is Staphylococci. The data set can be described thus: Gentamicin, Vancomycin FL and Bocillin FL binding. Type of data set: cell-based, Staphylococcus aureus. The settings on record: for Cell-associated level of vancomycin on addition of ALAFAC / Bocillin FL association with cells on addition of ALAFAC: 100 μg/mL ALAFAC. The procedure: Gentamicin, Vancomycin and Bocillin FL Binding. We adapted a previously described method using AlexaFluor 488-gentamicin, vancomycin FL and Bocillin FL as reporter antibiotics to investigate association of these compounds with the staphylococcal cells. In brief, indicated strains were grown in TSB to an OD600nm of 0.5. Antibiotics were added at the following concentrations: Gentamicin at 50 μg/mL, Vancomycin FL at 20 μg/mL, Bocillin FL at 25 μg/mL alone, or in combination with ALAFAC at 100 μg/mL.
After 30 minutes, cultures were centrifuged at 9,000×g for 4 min, washed four times with PBS, and resuspended in a small volume of PBS. Cells were lysed by 5 successive freeze thaw cycles at −80° C. and 37° C. for 5 min each as described. The Bocillin FL, vancomycin FL or Alexa Fluor 488-gentamicin concentration was determined by measuring the amount of fluorescent material in a Synergy 2 microplate reader (Biotek) using excitation and emission wavelengths set at 485 and 530 nm, respectively. Linearity was obtained between 2 and 800 μg/mL; (R^2=0.9983) for AlexaFluor 488-gentamicin, between 0.5 and 100 μg/mL; (R^2=0.9928) for Bocillin FL, and between 0.25 and 50 μg/mL; (R^2=0.9919) for Vancomycin FL, with binding expressed as a ratio of the fluorescence of each sample divided with the sample protein content, determined by the 280/260 nm ratio using the using a BioTek Synergy 2 plate reader with the Take3 microdrop addition (Biotek)

The conditions of data set [4]: in vivo; cited from earlier work.
The test system of data set [5] is Staphylococci. The data set can be described thus: Bactericidal activity of ALAFAC alone. Type of data set: cell-based.
Data set [6] deals with Escherichia coli. Conditions: concentrations up to 5 mg/ml; cited from earlier work.
For data set [7], the system named is Bacillus subtilis. Conditions: concentrations up to 5 mg/ml; cited from earlier work.
Data set [8] relates to Moraxella catarrhalis. The settings on record: 2 mg/ml; cited from earlier work.

B1: ALAFAC: non-covalent complex of alpha-lactalbumin and fatty acid (oleic acid); labeled HAMLET or HL in drawings and tables (protein, UniProt P00709 20-142, looked up)
Alpha-lactalbumin: KQFTKCELSQLLKDIDGYGGIALPELICTMFHTSGYDTQAIVENNESTEYGLFQISNKLWCKSSQVPQSRNICDISCDKFLDDDITDDIMCAKKILDIKGIDYWLAHKALCTEKLEQWLCEKL
modifications: complexed with oleic acid
As to B1, the Toxicity entry in [1] is listed as “no toxicity”. For the same molecule, the Storage time entry is reported as “at least 3 months” (physiological buffer (0.9% saline or PBS) at 4° C.) and “at least three” (room temperature). For the same molecule, in data set [2], the “Intracellular Ca2+ (45Ca2+ uptake)” value is “rose immediately”. Also, in [3] (NRS384, ALAFAC 100 μg/mL, P=0.09), the “Increase of cell-associated level of gentamicin by ALAFAC” value was found to be 2.6 fold. In addition, the “Cell-associated level of vancomycin on addition of ALAFAC” value in [3] (VISA strain NRS 1) is given as “significantly increased”; in data set [3] (vancomycin-sensitive strain) it was “did not increase”. The “Bocillin FL association with cells on addition of ALAFAC” value in [3] (methicillin-resistant strain NRS 384) is given as “significantly increased”; in [3] (methicillin-sensitive strain) it was “no significant increase”. In data set [4], the Toxic side effects result is listed as “without showing any toxic side effects”. Moreover, in data set [5], the “Concentration of ALAFAC not triggering death” value was “exceeding 1,000 μg/ml”. Moreover, the Bactericidal activity result in data set [6] and in data set [7] was “no detectable activity” each time. Moreover, in [8], the Reduction of bacteria entry is “less than 90%”.
